Experimental findings from US20200148765A1 (OSAKA UNIVERSITY, published 2020) are described below.

Substitutions are numbered along the chain they refer to.

In test [1] the target is T1, wild-type human CLDN-5 protein (human, UniProt O00501 1-218).
T1 construct: Four-transmembrane tight junction protein expressed by retrovirus on HT-1080 (or MDCKII) cells; also called hCLDN-5; human Claudin-5 protein
T1 sequence: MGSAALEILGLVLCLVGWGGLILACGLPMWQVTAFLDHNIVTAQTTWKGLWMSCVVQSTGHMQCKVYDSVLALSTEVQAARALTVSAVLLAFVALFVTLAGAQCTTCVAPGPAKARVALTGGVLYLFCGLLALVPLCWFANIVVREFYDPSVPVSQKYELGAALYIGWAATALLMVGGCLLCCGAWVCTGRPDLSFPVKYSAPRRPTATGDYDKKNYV
The test can be described thus: FACS saturation binding on HT-1080/hCLDN-5, one-site fit; Lot 2. On the procedure: (§1) The obtained CLDN-expressing cells were seeded in a 10 cm dish, and on the next day, the cells were collected. The primary antibodies (100 μL) were added to the obtained 1.0×10⁵ cells and allowed to react for 1 hour at 4° C. At this time, a mixed solution of a C-CPE mutant (C-CPEmt) and a mouse anti-His tag antibody (Abeam) used in Non-Patent Literature 3 was used as positive control. The cells were washed three times with 0.2% BSA-PBS, then mixed with 100 μL of a secondary antibody solution (FITC conjugated goat anti-mouse IgG or anti-rat IgG (Jackson Immune Research, 115-095-003 or 112-095-003) 400x diluted with 1% BSA-PBS, and allowed to react for 1 hour at 4° C. The cells were washed with 0.2% BSA-TBS and then analyzed using FACS caliber (BD Bioscience).
(§2) By using HT-1080/hCLDN-5 and 100 μL of the anti-CLDN-5 antibody at each concentration diluted with 1.0% BSA-PBS, FACS assay was performed in the same manner as in Example 3-1). […] At this time, the equation of saturation binding-one site-specific binding of Graph Pad prism 7 (Graph Pad Software) was used.

Another test concerns the target T2, mCLDN-2 protein (mouse, UniProt O88552 1-230).
T2 construct: Expressed on cells by retrovirus; also called mouse Claudin-2 protein
T2 sequence: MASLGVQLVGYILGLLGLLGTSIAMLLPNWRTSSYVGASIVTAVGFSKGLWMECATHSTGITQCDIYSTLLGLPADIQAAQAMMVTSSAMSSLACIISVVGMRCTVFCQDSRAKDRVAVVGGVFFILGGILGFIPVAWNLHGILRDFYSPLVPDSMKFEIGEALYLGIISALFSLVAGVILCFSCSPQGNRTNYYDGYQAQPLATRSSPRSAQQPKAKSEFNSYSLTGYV
The test can be described thus: FACS, hybridoma supernatant on CLDN-expressing cells.
Description: (§3) By the insertion of a DNA fragment consisting of an hCLDN-1 protein (SEQ ID NO: 30)-encoding sequence, an hCLDN-2 protein (SEQ ID NO: 31)-encoding sequence, an hCLDN-3 protein (SEQ ID NO 32)-encoding sequence, an hCLDN-4 protein (SEQ ID NO: 33)-encoding sequence, an hCLDN-6 protein (SEQ ID NO: 34)-encoding sequence, an hCLDN-7 protein (SEQ ID NO: 35)-encoding sequence, an mCLDN-1 protein (SEQ ID NO: 37)-encoding sequence, an mCLDN-2 protein (SEQ ID NO: 38)-encoding sequence, an mCLDN-3 protein (SEQ ID NO: 39)—encoding sequence, or an mCLDN-5 protein (SEQ ID NO: 29)-encoding sequence, vectors for preparing a retrovirus were obtained. By using these vectors and the vector for preparing a retrovirus prepared in Example 1-2), various CLDN protein-expressing cells were prepared. By using these cells and a culture supernatant of hybridomas producing antibodies as primary antibodies, FACS assay was performed by the following method.
as §1
(In general: A flow cytometer gives signals particle by particle.)

For another test, the target named is T3, mCLDN-3 protein (mouse, UniProt Q9Z0G9 1-219).
T3 construct: Expressed on cells by retrovirus; also called mouse Claudin-3 protein
T3 sequence: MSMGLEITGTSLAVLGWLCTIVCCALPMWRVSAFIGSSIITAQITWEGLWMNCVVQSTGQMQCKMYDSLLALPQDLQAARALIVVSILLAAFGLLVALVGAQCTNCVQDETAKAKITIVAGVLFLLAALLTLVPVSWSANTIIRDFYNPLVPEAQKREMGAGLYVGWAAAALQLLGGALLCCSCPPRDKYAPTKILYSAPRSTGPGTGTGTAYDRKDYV
Described as above.
Description: as §3, §1

Another test has as its target T4, mCLDN-1 protein (mouse, UniProt O88551 1-211).
T4 construct: Expressed on cells by retrovirus; also called mouse Claudin-1 protein
T4 sequence: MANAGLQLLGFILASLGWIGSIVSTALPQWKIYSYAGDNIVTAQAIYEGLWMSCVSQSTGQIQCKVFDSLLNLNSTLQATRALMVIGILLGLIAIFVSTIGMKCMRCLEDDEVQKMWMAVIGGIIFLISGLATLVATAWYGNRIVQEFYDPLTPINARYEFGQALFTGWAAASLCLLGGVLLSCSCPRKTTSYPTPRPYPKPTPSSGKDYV
The test is described as above.
Description: as §3, §1

Test [2] deals with T1, wild-type human CLDN-5 protein. The test can be described thus: FACS saturation binding on HT-1080/hCLDN-5, one-site fit; Lot 1. As to the method: as §1, §2
For test [3], the target named is T5, crab-eating macaque CLDN-5 protein (crab-eating macaque, UniProt O00501 1-218 (human entry)).
T5 construct: Expressed on cells by retrovirus; also called cCLDN-5; MDCKII/cCLDN-5
T5 chain: T1 sequence with S86G, F127L, C179G, G190S
The test can be described thus: FACS on CLDN-5-expressing cells, antibody 5 µg/mL. On the procedure:
as §1
In the same manner as in Example 1-2), a DNA fragment consisting of a cCLDN-5 protein (SEQ ID NO: 28)-encoding sequence or an mCLDN-5 protein (SEQ ID NO: 29)-encoding sequence was inserted into a pCX4pur vector, thereby obtaining vectors for preparing a retrovirus. By using these vectors with the vector for preparing a retrovirus prepared in Example 1-2), various animal species CLDN-5 protein-expressing cells were prepared. By using these cells and the antibodies (antibody concentration: 5 μg/mL, as primary antibody), FACS assay was performed in the same manner as in 3-1).

In another test the target is T6, mouse CLDN-5 protein (mouse, UniProt O54942 1-218).
T6 construct: Expressed on cells by retrovirus; also called mCLDN-5; MDCKII/mCLDN-5
T6 sequence: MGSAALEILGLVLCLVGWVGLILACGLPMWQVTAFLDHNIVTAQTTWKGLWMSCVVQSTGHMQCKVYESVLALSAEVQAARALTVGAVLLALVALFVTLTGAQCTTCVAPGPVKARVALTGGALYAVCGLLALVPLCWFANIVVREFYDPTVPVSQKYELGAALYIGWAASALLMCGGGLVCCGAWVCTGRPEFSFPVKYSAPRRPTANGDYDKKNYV
The test can be described thus: FACS, hybridoma supernatant on CLDN-expressing cells.
Description: as §3, §1

B1: rat anti-CLDN-5 antibody R9 (antibody, rat IgG2b, V domains shown)
VH: QVTLKESGPGILQPSHTLSLTCSFSGFSLNTYGVGVNWIRQPSGKGLEWLASIWWHGKTYINPSLKNRLTVSKDPSNNQAFLEVTNVDPADTATYYCAHARAQLLDYWGQGVMVTVSS
VL: DIVMTQTPSSQAVSAGEKVTMSCKSSQSLLYSGDQKNYLAWYQQKPGQSPKLLIYLTSTRESGVPDRFIGSGSGTDFTLTISSVQAEDLADYYCQQHYSYPLTFGSGTKLEI
notes: Hybridoma monoclonal; also called antibody I
For the molecule B1, the Kd (in general, the constant that tells how readily two partners part at equilibrium) turned out to be 2.75 nM in test [1] and 3.78 nM in test [2]. Moreover, the binding result is on record as “no binding” in the test with mCLDN-2 protein, “no binding” with mCLDN-3 protein, “no binding” with mCLDN-1 protein and “binds” in test [3].

B2: rat anti-CLDN-5 antibody R14 (antibody, rat IgG2a, V domains shown)
VH: QVTLKESGPGILQPSHTLSLTCSFSGFSLSTYGMGVSWIRQPSGKGLEWLASIWWNGRTYTNPSLMSRLTVSKDTSTNQAFLRVTSVETADTATYYCAHTPYDYSNLGWFTYWGQGTLVTVSS
VL: B1 VL with V3L, M21V, N37S, T57A, E61K, S99T
notes: Hybridoma monoclonal; also called antibody K
As to B2, the results for the Kd in test [1] and in test [2] were 8.42 nM and 4.66 nM, respectively. The binding result in the test with mouse CLDN-5 protein is listed as “no binding”; with mCLDN-2 protein it was “no binding”; in the test with mCLDN-3 protein it was “no binding”; with mCLDN-1 protein it was “no binding”; in test [3], “binds”.

B3: rat anti-CLDN-5 antibody R3 (antibody, rat IgG2a, V domains shown)
VH: EVQLVESGGGLVQPGRSLKLSCAASGFTFSDYYMAWVRQAPKKGLEWVASISYEGRNTYYGDSVKGRFTISRDNAKSTLYLQMKSLRSEDTATYYCTRHPRRYFDYWGQGVMVTVSS
VL: DIVMTQSPSSLAVSAGETVTMNCRSSQSLFSSGDQKKFLAWYQQKPGQSPKLLISLASTRESGVPDRFIGSGSGTDFTLTINNMQAEDLAIYYCQQHYDIPYTFGAGTKLEL
notes: Hybridoma monoclonal; also called antibody G
With B3, the figures for the Kd in test [1] and in test [2] were 2.44 nM and 7.19 nM, respectively. Further, the binding result with mouse CLDN-5 protein was “no binding”; with mCLDN-2 protein, “no binding”; with mCLDN-3 protein, “no binding”; with mCLDN-1 protein it was “no binding”; in test [3] it was “binds”.

B4: mouse anti-CLDN-5 antibody M11 (antibody, mouse IgG2b, V domains shown)
VH: QVQLKQSGPGLVQPSQSLSITCTVSGFSLIRYGVHWVRQSPGKGLEWLGVKWSGGSTDYNGAFKSRLSISKDNSKSQVFFKMNSLQADDTAIYYCARGLDGYYVPDVWGTGTSVTVS
VL: DIVMTQSHKFMSTSVGDRVSITCKASQDVSTNVAWYQQKPGQSPTLLIYWASTRHTGVPDRFTGSGSGTDYTLTISSVQAEDLALYYCQQHYSTPLTFGAGTKLELRR
notes: Hybridoma monoclonal; also called antibody B
Take B4: the results for the Kd in test [1] and in test [2] were 9.68 nM and 8.72 nM, respectively. Further, the binding result with mouse CLDN-5 protein is given as “no binding”; with mCLDN-2 protein it was “no binding”; with mCLDN-3 protein, “no binding”; with mCLDN-1 protein, “no binding”; in test [3], “binds”.

B5: rat anti-CLDN-5 antibody R2 (antibody, rat IgG2a, V domains shown)
VH: QVQLKESGPGLVQPSQTLSLTCTVSGLSLIRNSVSWIRQPPGKGLEWMGVIWSNGGTEYNSTVKSRLSISRDTSKNQVFLKMNSLQTEDSAMFFCARTPDGYYPYFDYWGQGVMVTVSS
VL: DIVLTQSPATLSVTPGESVSLSCRASQGISTSIHWYQQKSNESPRLLIRYASQSISRIPSRFSGSGSGTDFTLTINGVESEDLSVYYCQQSYNLPLTFGSGTKLEI
notes: Hybridoma monoclonal; also called antibody F
As for B5, the Kd worked out at 20.7 nM in test [1] and 20.1 nM in test [2]. Also, the binding result with mouse CLDN-5 protein, with mCLDN-2 protein, with mCLDN-3 protein and with mCLDN-1 protein was “no binding” each time.

B6: mouse anti-CLDN-5 antibody M48 (antibody, mouse IgG3, V domains shown)
VH: QAYLQQSGAELVRPGASVKMSCKASGYTFTSYNMHWVKKTRRQGLEWIGAISPGNGNTSYNQKFKGKATLTVDKSSSTAYMQLSSLTSEDSAVYFCARDDGYYGALDYWGQGTSVTVSS
VL: B5 VL
notes: Hybridoma monoclonal; also called antibody E
In the case of B6, the figures for the Kd in test [1] and in test [2] were 8.47 nM and 29.1 nM, respectively. Also, the binding result with mCLDN-2 protein, with mCLDN-3 protein and in the test with mCLDN-1 protein was “no binding” in each case.

B7: mouse anti-CLDN-5 antibody M3 (antibody, mouse IgG2b, V domains shown)
VH: EVQLQQSGPELVKPGASVKISCKASGYSFTGYYMNWVKQSPEKSLEWIGDINPSTGGATYNQKFKAKATLTVDKSSSTAYMQLKSLTSEDSAVFYCALYSNYGFVYWGQGTLVTVSA
VL: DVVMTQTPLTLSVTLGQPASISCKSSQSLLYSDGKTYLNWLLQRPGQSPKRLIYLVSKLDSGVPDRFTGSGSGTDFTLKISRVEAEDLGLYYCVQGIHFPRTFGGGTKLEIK
notes: Hybridoma monoclonal; also called antibody A
For the molecule B7, the Kd in test [1] came out at 6.41 nM; in test [2] it was 3.89 nM. Moreover, the binding result with mouse CLDN-5 protein is “no binding”; with mCLDN-2 protein, “no binding”; with mCLDN-3 protein, “no binding”; in test [3], “binds”.
